Experimental data taken from the supplement of paper PMC7125110.
± gives the standard error. Variants at the floor of the assay were thinned out.

B1: glmS ribozyme (parent)
chain: AUAAAAGCGCCAGAACUACAGAAAUGUAGUUGACGAGGAGGAGGUUUAUCGAAUUUUCGGCGGAUGCCUCCAAA

Assays:
Settings in all cases: with glucosamine-6-phosphate
[1] = variants of: B1; test: self-cleavage kobs at 40 uM GlcN6P; higher = faster cleavage; RNA array
How it was run: (§1)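 Weighted Michaelis–Menten fits across concentrations supplied kcat and KM, based on kobs from one- or two-exponential decay fits to normalised per-tile medians. The data came from barcoded ribozyme variants transcribed in situ by E. coli RNA polymerase on sequenced MiSeq chips and tracked at 37 °C by a hybridised Cy3 probe. Glucosamine-6-phosphate (40 μM to 10 mM) in HEPES/KCl/Mg(OAc)2 buffer was flowed in.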

[2] = variants of: B1; test: self-cleavage kobs at 640 uM GlcN6P; higher = faster cleavage; RNA array
How it was run: as §1

[3] = variants of: B1; test: self-cleavage kobs at 10000 uM GlcN6P; higher = faster cleavage; RNA array
How it was run: as §1

[4] = variants of: B1; test: self-cleavage kobs at 160 uM GlcN6P; higher = faster cleavage; RNA array
How it was run: as §1

[5] = variants of: B1; test: self-cleavage kobs at 2500 uM GlcN6P; higher = faster cleavage; RNA array
How it was run: as §1

AUAAAAGCGCCAGAACUACAGAAAUGUAGUUGACGAUGAAUAGGUUUAUCGGAUUUUCGGCGGAUGCCUCCAAA
self-cleavage kobs at 40 uM GlcN6P [1]: < 1e-05 s⁻¹

AUAAAAGCGCCAGAACUACAGAAAUGUAGUUGACGAGGAGGAGGUUUAUCGAAUUUUCGUCGGAUGCCGCCAAA
self-cleavage kobs at 40 uM GlcN6P [1]: < 1e-05 s⁻¹ | self-cleavage kobs at 640 uM GlcN6P [2]: < 1e-05 s⁻¹ | self-cleavage kobs at 10000 uM GlcN6P [3]: < 1e-05 s⁻¹

AUAAAAGCGCCAGAACUACAGAAAUGUAGUUGACGAGGAGGACGUUUAUCGAAUUUUAGGCGGAUGCCUCCAAA
self-cleavage kobs at 40 uM GlcN6P [1]: < 1e-05 s⁻¹ | self-cleavage kobs at 160 uM GlcN6P [4]: < 1e-05 s⁻¹ | self-cleavage kobs at 640 uM GlcN6P [2]: < 1e-05 s⁻¹ | self-cleavage kobs at 2500 uM GlcN6P [5]: < 1e-05 s⁻¹ | self-cleavage kobs at 10000 uM GlcN6P [3]: < 1e-05 s⁻¹

AUAAAAGCGCCAGAACUACAGAAAUGUAGUUGACGAGGAGGAGGUUUAUCGAGUUUUCGGCGGAUGCCACCAAA
self-cleavage kobs at 40 uM GlcN6P [1]: 0.000147 ± 4e-05 s⁻¹ | self-cleavage kobs at 640 uM GlcN6P [2]: 0.000407 ± 0.0001 s⁻¹ | self-cleavage kobs at 2500 uM GlcN6P [5]: 0.000305 ± 8.4e-05 s⁻¹ | self-cleavage kobs at 10000 uM GlcN6P [3]: 8.92e-05 ± 2.1e-05 s⁻¹

AUAAAAGCGCCAGAACUACAGAAAUGUAGUUAACGAGGAGGAGGUUUAUCGUAUUUUCGGCGGAUGCCUCAAAA
self-cleavage kobs at 40 uM GlcN6P [1]: < 1e-05 s⁻¹

AUAAAAGCGCCAGAACUACAGAAAUGUAGUUGACGAGGAGGAGGUUUAUCGGAUUUUCGACGGAGGCCUCUAAA
self-cleavage kobs at 40 uM GlcN6P [1]: < 1e-05 s⁻¹

AUAAAAGCGCCAGAACUACAGAAAUGUAGUUGGCGAGGUGGAGGUUUAUCGAAUUUUCGGCGGAUGCCUCCAAA
self-cleavage kobs at 40 uM GlcN6P [1]: < 1e-05 s⁻¹ | self-cleavage kobs at 2500 uM GlcN6P [5]: < 1e-05 s⁻¹ | self-cleavage kobs at 10000 uM GlcN6P [3]: < 1e-05 s⁻¹

AUAAAAGCGCCAGAACUACAGAAAUGUAGUUGACGAGGAGGCGGUUUAUCGAAUUUUCGGCGAAUGGCUCCAAA
self-cleavage kobs at 40 uM GlcN6P [1]: < 1e-05 s⁻¹

AUAAAAGCGCCACAACUACAGAAAUGUAGUUGACGAGGAGGAGGUUUAUCGAAUUUUCGGCGGAUCCCUCCAAA
self-cleavage kobs at 40 uM GlcN6P [1]: < 1e-05 s⁻¹ | self-cleavage kobs at 640 uM GlcN6P [2]: < 1e-05 s⁻¹

AUAAAAUCGCCAGAACUACAGAAAUGUAGUUGACAAGGAGGAGGUUUAUCGAAUUUUCGGCGGAUGCCUCCAAA
self-cleavage kobs at 40 uM GlcN6P [1]: < 1e-05 s⁻¹ | self-cleavage kobs at 160 uM GlcN6P [4]: < 1e-05 s⁻¹ | self-cleavage kobs at 640 uM GlcN6P [2]: < 1e-05 s⁻¹ | self-cleavage kobs at 2500 uM GlcN6P [5]: < 1e-05 s⁻¹ | self-cleavage kobs at 10000 uM GlcN6P [3]: < 1e-05 s⁻¹

AUAAAAGCGCCAAAACUACAGAAAUGUAGUUGACGAGGAGGAGGUUUAUCGAAUUUUCGGCUGAUGCCUUCAAA
self-cleavage kobs at 40 uM GlcN6P [1]: < 1e-05 s⁻¹ | self-cleavage kobs at 10000 uM GlcN6P [3]: < 1e-05 s⁻¹

AUAAAAGCACCAGAACUACAGAAAUGUAGUUGACGAGGAGGAGGUUUAUCGAAUUUUCGGCGGAUGCCUACAAA
self-cleavage kobs at 40 uM GlcN6P [1]: < 1e-05 s⁻¹ | self-cleavage kobs at 160 uM GlcN6P [4]: < 1e-05 s⁻¹ | self-cleavage kobs at 640 uM GlcN6P [2]: < 1e-05 s⁻¹ | self-cleavage kobs at 2500 uM GlcN6P [5]: < 1e-05 s⁻¹ | self-cleavage kobs at 10000 uM GlcN6P [3]: < 1e-05 s⁻¹

AUAAAAGCGCCUGAACUACAGAAAUGUAGUUGUCGAGGAGGAGGUUGAGCGAAUGUUCGGCGGAUGCUUCCAAA
self-cleavage kobs at 40 uM GlcN6P [1]: < 1e-05 s⁻¹

AUAAAAGCGCCAGAACUACAGAAAUGUAGUUGACGAGGAAGAGGUUUAUAGAAUUUUCGGCGGAUGCCUGCAAA
self-cleavage kobs at 40 uM GlcN6P [1]: < 1e-05 s⁻¹

AUAAAAGCGCCAGAGCUACAGAAAUGUAGUUGACCAGGAGGAGGUUUAUCGAAUUUUCGGCGGAUGCAUCCAAA
self-cleavage kobs at 40 uM GlcN6P [1]: < 1e-05 s⁻¹

AUAAAAGCGCCAGAACUACAGAAAUGUAGGUGUCGAGGAGGAGGUUUAUCGAAUUUUCGACGGAUGCCUCCAAA
self-cleavage kobs at 40 uM GlcN6P [1]: < 1e-05 s⁻¹ | self-cleavage kobs at 640 uM GlcN6P [2]: < 1e-05 s⁻¹ | self-cleavage kobs at 2500 uM GlcN6P [5]: < 1e-05 s⁻¹

AUAAAAGCGCCAGAACUACAGAAAUGUAGUUGACCAGGAGGAGGUUUAUCGAAUUUUCGGCGGUUGCCUCCAAA
self-cleavage kobs at 40 uM GlcN6P [1]: < 1e-05 s⁻¹ | self-cleavage kobs at 160 uM GlcN6P [4]: < 1e-05 s⁻¹ | self-cleavage kobs at 640 uM GlcN6P [2]: < 1e-05 s⁻¹ | self-cleavage kobs at 2500 uM GlcN6P [5]: < 1e-05 s⁻¹ | self-cleavage kobs at 10000 uM GlcN6P [3]: < 1e-05 s⁻¹

AUAAAAGCGCCAGAACUAUAGAAAUGUAGUUGACGAGGAGGAGGUUUAUCGAAUUUUCGGCGGAUGCCUCCAAA
self-cleavage kobs at 40 uM GlcN6P [1]: 0.00125 ± 0.00046 s⁻¹ | self-cleavage kobs at 160 uM GlcN6P [4]: 0.00445 ± 0.0011 s⁻¹ | self-cleavage kobs at 640 uM GlcN6P [2]: 0.00527 ± 0.0011 s⁻¹ | self-cleavage kobs at 2500 uM GlcN6P [5]: 0.0229 ± 0.0083 s⁻¹

AUAAAAGCGCCAGAACUACAGAAAUGUAGCUGACGAGGAGGAGGUUUAUCGAAUUUUCGGCGGAUGCCGCCAAA
self-cleavage kobs at 40 uM GlcN6P [1]: 3.65e-05 ± 1.2e-05 s⁻¹ | self-cleavage kobs at 160 uM GlcN6P [4]: 7.31e-05 ± 1.5e-05 s⁻¹ | self-cleavage kobs at 640 uM GlcN6P [2]: 0.000119 ± 2.8e-05 s⁻¹ | self-cleavage kobs at 2500 uM GlcN6P [5]: 5.46e-05 ± 1.1e-05 s⁻¹ | self-cleavage kobs at 10000 uM GlcN6P [3]: 2.39e-05 ± 1.1e-05 s⁻¹

AUAAAAGCGCCAGAACUACAGAAAUGUAGUUGACGCGGAGGAGGUUUAUCGAAUUUUCGGCGGAUGCCUACAAA
self-cleavage kobs at 40 uM GlcN6P [1]: 3.5e-05 ± 1.7e-05 s⁻¹ | self-cleavage kobs at 160 uM GlcN6P [4]: 0.000113 ± 3.7e-05 s⁻¹ | self-cleavage kobs at 640 uM GlcN6P [2]: 6.93e-05 ± 3e-05 s⁻¹

AUAAAAGCGCCAGAACUAAAGAAAUGUAGUUGGCGGGGAAGGGGUUUAUCGAAUUUUCGGCUAAUGCCUCAAAA
self-cleavage kobs at 40 uM GlcN6P [1]: < 1e-05 s⁻¹ | self-cleavage kobs at 2500 uM GlcN6P [5]: < 1e-05 s⁻¹

AUAAAAGCGCCAGAACUACAGAAAUGUAGUUGGCGAGGAGGAGGUUUAUCGAAUUUUAGGCGGAUGCCUCCAAA
self-cleavage kobs at 40 uM GlcN6P [1]: < 1e-05 s⁻¹ | self-cleavage kobs at 10000 uM GlcN6P [3]: < 1e-05 s⁻¹

AUAAAAGCGCCAGAACUACAGAAAUGUAGUUGACGAGGAGGCGGUUGAUCGAAUUUUCGGCGGAUGCCUCCAAA
self-cleavage kobs at 40 uM GlcN6P [1]: < 1e-05 s⁻¹ | self-cleavage kobs at 2500 uM GlcN6P [5]: < 1e-05 s⁻¹

AUAAAAGCGCCAGAACUACAGAAAUGUAGUUGACGAGGACGAGGUUUAUCGAAUUUUCGGGGGAUGCCUCCAAA
self-cleavage kobs at 40 uM GlcN6P [1]: < 1e-05 s⁻¹ | self-cleavage kobs at 160 uM GlcN6P [4]: < 1e-05 s⁻¹ | self-cleavage kobs at 640 uM GlcN6P [2]: < 1e-05 s⁻¹ | self-cleavage kobs at 2500 uM GlcN6P [5]: < 1e-05 s⁻¹ | self-cleavage kobs at 10000 uM GlcN6P [3]: < 1e-05 s⁻¹

AUAAAAGCGCUAGAACUACAGAAAUGUAGUUGACGAGGAGGCGGUUUAUCGAAUUAUCGGCGGAUGCAUCCAAA
self-cleavage kobs at 40 uM GlcN6P [1]: < 1e-05 s⁻¹ | self-cleavage kobs at 10000 uM GlcN6P [3]: < 1e-05 s⁻¹

AUAAAAGCGCAAGAACUACAGAAAUGUAGUUGACGAGGAGGAGGUUUAUAGAAUUUUCGGCGGAUGCGUCCAAA
self-cleavage kobs at 40 uM GlcN6P [1]: 5.45e-05 ± 1.8e-05 s⁻¹ | self-cleavage kobs at 160 uM GlcN6P [4]: 0.000352 ± 0.0001 s⁻¹ | self-cleavage kobs at 640 uM GlcN6P [2]: 0.000154 ± 5.6e-05 s⁻¹ | self-cleavage kobs at 2500 uM GlcN6P [5]: 6.2e-05 ± 2.5e-05 s⁻¹ | self-cleavage kobs at 10000 uM GlcN6P [3]: 3.73e-05 ± 1.7e-05 s⁻¹
